Measured values reported in patent US20250082771A1, “DOSAGE REGIMEN OF AN ANTI-CDH6 ANTIBODY-DRUG CONJUGATE” (DAIICHI SANKYO COMPANY, LIMITED, priority 2022, published 2025).

Experiments:
Type in all cases: in vivo, human
[1] = system: RCC and OVC subjects; assay: Phase 1 dose escalation part: safety and tolerability (TEAEs, DLT, RDE)
Protocol: (§1) The dose escalation part of the Phase 1 study was a multicenter, open-label, multiple-dose, first-in-human study of DS-6000a, which enrolled subjects in the United States (see clinicaltrials.gov identifier NCT 04707248). DS-6000a was administered intravenously every 3 weeks. In the dose escalation part, RCC and OVC subjects were enrolled and dose-limiting toxicity (DLT) was assessed during Cycle 1.
The primary objective of the dose escalation part was to investigate the safety and tolerability and determine the maximum-tolerated dose (MTD) and/or recommended dose for expansion (RDE).
(§2) Patient assessments included echocardiogram or multigated acquisition scan, 12-lead electrocardiogram, AEs, PK, human anti-human antibodies, biomarkers, and tumor assessments at prespecified visits. The demographic and baseline characteristics of the patient enrolled in this dose escalation part of the Phase 1 study are shown in FIG. 2.
(§3) For this dose escalation part of the Phase 1 study, Bayesian optimal interval (BOIN) design was used to estimate the MTD. Accelerated titration, treat a single subject at a dose level, was performed until any DLT or ≥Grade 2 AE possibly related to DS-6000a (excluding infusion-related reactions) is observed during Cycle 1. Objective response rate (ORR), clinical benefit rate (CBR), and disease control rate (DCR) were summarized with 95% confidence intervals (CI) using the Clopper-Pearson method; duration of response (DOR) and progression-free survival (PFS) were summarized using the Kaplan-Meier method. Safety endpoints, PK parameters and plasma anti-drug antibodies were summarized using descriptive statistics.

[2] = system: RCC and OVC subjects; assay: Phase 1 dose escalation part: tumor response per RECIST V1.1
Protocol: as §1, §2, §3

[3] = system: CA-125; assay: Phase 1 dose escalation part: CA-125 response (GCIG criteria)
Text: (§4) Secondary objectives included characterizing the pharmacokinetic (PK) properties of DS-6000a, total anti-CDH6 antibody, drug component and assessing the immunogenicity. Exploratory objectives included evaluating biomarker that correlate with efficacy and disease assessment in OVC using Gynecologic Cancer Intergroup (GCIG) criteria.

[4] = system: RCC and OVC subjects; assay: Phase 1 dose escalation and expansion parts as of new cut-off date: safety and tolerability
Protocol: (§5) The dose expansion part of the Phase 1 study was a multicenter, open-label, multiple-dose, first-in-human study of DS-6000a, which enrolled subjects in the United States (see clinicaltrials.gov identifier NCT 04707248). DS-6000a was administered intravenously every 3 weeks. The dose expansion part included administering to RCC and OVC subjects at RDEs. Initially, dose of 8.0 mg/kg was expanded, subsequently, the 6.4, 5.6 and 4.8 mg/kg doses were added as RDEs (FIG. 12).
The primary objective of the dose expansion part was to evaluate the safety, tolerability, and efficacy at the RDEs.
Patient assessments included echocardiogram or multigated acquisition scan, 12-lead electrocardiogram, AEs, PK, human anti-human antibodies, biomarkers, and tumor assessments at prespecified visits.
(§6) Objective response rate (ORR), clinical benefit rate (CBR), and disease control rate (DCR) were summarized with 95% confidence intervals (CI) using the Clopper-Pearson method; duration of response (DOR) and progression-free survival (PFS) were summarized using the Kaplan-Meier method. Safety endpoints, PK parameters and plasma anti-drug antibodies were summarized using descriptive statistics.
(§7) After the initial data-cut, additional patients were enrolled in Phase 1 (both escalation and expansion), bringing the overall number of participants to sixty-seven (N=67). The demographic and baseline characteristics of the patient enrolled in dose escalation and expansion parts of the Phase 1 study as of new cut-off date are shown in FIG. 13. Subjects ranged in age from 34 to 83 years with a median age of 63 years. A median of 4 prior lines of therapy was administered. The prior lines of therapy comprise a platinum-based chemotherapeutic, a chemotherapeutic, a PARP inhibitor, an immune checkpoint inhibitor, an angiogenic inhibitor and a VEGFR-TKI. The subjects were 25.4% RCC, 74.6% OVC and 64.2% had Eastern Cooperative Oncology Group performance status (ECOG PS) of 1.
Subjects had received DS-6000a as monotherapy with a median treatment duration of 15.4 weeks (range 3.0 to 93.9 weeks). The number of patients in the dose escalation and expansion parts of the Phase 1 study as of new cut-off date with TEAE, which occurred in […] of patients, regardless of causality, is shown in FIG. 14.

[5] = system: OVC subjects; assay: Phase 1 dose escalation and expansion parts as of new cut-off date: tumor response, ORR and PFS
Protocol: as §5, §6, §7
One confirmed CR and 14 confirmed PR were observed among 44 evaluable OVC subjects at doses ranging from 1.6 to 9.6 mg/kg. SD was reported for 24 subjects (FIG. 17).

[6] = system: CA-125; assay: Phase 1 dose escalation and expansion parts as of new cut-off date: CA-125 response
Text: as §4

[7] = dose escalation part, among 24 efficacy evaluable patients
[8] = dose escalation and expansion parts, new cut-off date, N=67
[9] = among 44 evaluable OVC subjects, 1.6 to 9.6 mg/kg, new cut-off date

DS-6000a: anti-CDH6 antibody (SEQ ID NO: 69 positions 20-471; SEQ ID NO: 61 positions 21-233) bound via thioether bond to drug linker; DAR 7 to 8
patients discontinued due to PD per RECIST V1.1 ([1]; 1.6 mg/kg): 1 patients
patients discontinued due to clinical progression ([1]; 3.2 mg/kg): 1 patients
patients discontinued due to death ([1]; 3.2 mg/kg): One
patients required dose interruption ([1]; 3.2 mg/kg): 1 patients
patients discontinued due to clinical progression ([1]; 4.8 mg/kg): 1 patients
patients required dose interruption ([1]; 4.8 mg/kg): 2 patients
patients discontinued due to PD per RECIST V1.1 ([1]; 6.4 mg/kg): 2 patients
patients discontinued due to clinical progression ([1]; 6.4 mg/kg): 1 patients
patients required dose interruption ([1]; 6.4 mg/kg): 3 patients
patients discontinued due to PD per RECIST V1.1 ([1]; 8.0 mg/kg): 2 patients
patients discontinued due to clinical progression ([1]; 8.0 mg/kg): 1 patients
patients required dose interruption ([1]; 8.0 mg/kg): 1 patients
patients required dose reduction ([1]; 8.0 mg/kg): 1 patients
patients discontinued due to adverse event ([1]; 9.6 mg/kg): One
patients required dose interruption ([1]; 9.6 mg/kg): 2 patients
patients required dose reduction ([1]; 9.6 mg/kg): 2 patients
DLTs ([1]; 9.6 mg/kg, Cycle 1, Gr3 febrile neutropenia and Gr4 platelet count decreased): Two
serious TEAEs considered drug-related ([1]; Grade 3 anaemia and Grade 3 febrile neutropenia at 9.6 mg/kg): Two
RDE (recommended dose for expansion) ([1]; IV every 3 weeks): 8.0 mg/kg
grade of serious TEAEs ([1]; N=30): all events are Grade 3
patients with serious TEAEs ([1]; N=30 (4/30)): 13.3%
patients reported Grade 23 related TEAE ([1]; N=30 (7/30), drug-related): 23.3%
patients reported Grade 23 TEAE ([1]; N=30 (10/30), regardless of causality): 33.3%
patients discontinued from treatment ([1]; N=30 (13 patients)): 43.3%
patients with drug-related TEAEs ([1]; N=30 (25 patients)): 83.3%
patients reported 21 TEAE ([1]; N=30 (26/30), regardless of causality, IV every 3 weeks): 86.7%
patients discontinued due to PD per RECIST V1.1 ([1]; N=30, all dose levels): 5 patients
patients discontinued due to clinical progression ([1]; N=30, all dose levels): Four
patients required dose interruption ([1]; N=30, all dose levels): Nine
patients required dose reduction ([1]; N=30, all dose levels): three
Grade 23 related TEAE neutrophil count decreased ([1]; N=30, drug-related): 16.7%
related TEAE decreased appetite ([1]; N=30, drug-related): 20.0%
related TEAE fatigue ([1]; N=30, drug-related): 56.7%
related TEAE nausea ([1]; N=30, drug-related): 60.0%
related TEAE neutrophil count decreased ([1]; N=30, drug-related): 23.3%
related TEAE vomiting ([1]; N=30, drug-related): 30.0%
Grade 23 TEAE anaemia ([1]; N=30, regardless of causality): 10.0%
Grade 23 TEAE hypokalemia ([1]; N=30, regardless of causality): 10.0%
Grade 23 TEAE neutrophil count decreased ([1]; N=30, regardless of causality): 16.7%
TEAE decreased appetite ([1]; N=30, regardless of causality): 40.0%
TEAE diarrhoea ([1]; N=30, regardless of causality): 20.0%
TEAE fatigue ([1]; N=30, regardless of causality): 63.3%
TEAE nausea ([1]; N=30, regardless of causality): 60.0%
TEAE neutrophil count decreased ([1]; N=30, regardless of causality): 23.3%
TEAE vomiting ([1]; N=30, regardless of causality): 46.7%
tolerability ([1]; as of data cut off): generally well tolerated
time stayed in treatment, one patient with SD ([2]; dose escalation part, 8.0 mg/kg): more than 180 days
tumor shrinkage in target lesion ([2]; dose escalation part, 3.2, 4.8, 6.4, 8.0 and 9.6 mg/kg dose levels): Tumor shrinkages were observed
durability of tumor responses ([2]; dose escalation part, FIG. 6): durable
PRs based on RECIST V1.1 ([2]; dose escalation part, RCC, among 24 efficacy evaluable patients): one
best percent change in sum of longest dimensions from baseline (tumor reduction) ([2]; dose escalation part, a patient in the 9.6 mg/kg dosing group): 68.8%
Non-CR/Non-PDs [2, 7]: 2
PRs (including single point PRs, not yet confirmed responses) based on RECIST V1.1 [2, 7]: 6
stable diseases (SDs) [2, 7]: 12
PRs based on RECIST V1.1 ([2]; dose escalation part, platinum-resistant OVC, among 24 efficacy evaluable patients): five
maximum decrease in tumor size ([2]; one clear cell RCC patient, 3 prior therapies including ICI and VEGFR-TKI, 3.2 mg/kg, 51.4 weeks following initiation of treatment): 64.3%
maximum decrease in tumor size ([2]; one platinum-resistant OVC patient, 3 prior therapies including bevacizumab and PARP inhibitor, 6.4 mg/kg, 40.4 weeks following initiation of treatment): 35.7%
durability of CA-125 responses ([3]; FIG. 8): durable
patients showed CA-125 responder ([3]; among 17 efficacy evaluable OVC patients, at least 50% reduction in CA-125 from baseline, confirmed and maintained at least 28 days): 8 patients
CA-125 response rates by dose level ([3]; dose level of 4.8 to 9.6 mg/kg): Higher CA-125 response rates
fatal cases ([4]; 8.0 mg/kg): 3
tolerability ([4]; 8.0 mg/kg, frequent dose reduction/interruption compared to lower doses): not tolerated
doses at which well tolerated ([4]; dose escalation and expansion parts, new cut-off date): up to 6.4 mg/kg
most frequently reported Grade 23 events [4, 8]: hematological events
severity of the majority of the gastrointestinal events [4, 8]: Grade 1 or 2
most frequently reported TEAEs ([4]; dose escalation and expansion parts, new cut-off date, N=67, monotherapy): gastrointestinal events (nausea, vomiting and diarrhea), fatigue, decreased appetite and hematological events (anaemia, neutrophil count decreased and platelet count decreased)
preliminary efficacy signals by dose ([5]; 4.8 and 6.4 mg/kg compared to 8.0 mg/kg, small sample size): better preliminary efficacy signals
median PFS ([5]; OVC subjects, 3.2 mg/kg): 13.9 months
median PFS ([5]; OVC subjects, 4.8 mg/kg): 7.9 months
median PFS ([5]; OVC subjects, 6.4 mg/kg): 5.8 months
median PFS ([5]; OVC subjects, 8.0 mg/kg): 5.6 months
median PFS ([5]; OVC subjects, doses ranging from 1.6 to 9.6 mg/kg): 5.8 months
dose-effect on efficacy ([5]; OVC subjects, higher dosing group, FIG. 16): consistent and pronounced reduction in tumor size
ORR compared to current standard of care (single-agent chemotherapies) in platinum resistant ovarian cancer ([5]; OVC subjects, new cut-off date): Higher ORR
PFS compared to current standard of care (single-agent chemotherapies) in platinum resistant ovarian cancer ([5]; OVC subjects, new cut-off date): Longer PFS
ORR ([5]; among 41 evaluable OVC subjects with measurable disease at baseline, 1.6 to 9.6 mg/kg): 36.6%
confirmed CR [5, 9]: One
confirmed PR [5, 9]: 14
CA-125 response rates among dose levels ([6]; OVC patients): High CA-125 response rates
CA-125 reductions ([6]; OVC subjects, FIG. 18): deep and durable
patients showed CA-125 responder ([6]; among 28 efficacy evaluable OVC patients, at least 50% reduction in CA-125 from baseline, confirmed and maintained at least 28 days): 15 patients
